Data: the domain aggregation screens of Martell et al. (2025)

Experiment: soluble fraction after stress (log2 fold change); higher = more stays soluble; pooled small domains, quantitative proteomics
Conditions: stress: pH 4
Summary of the method: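 Values are on a log2 scale, where higher means more of the domain stayed soluble after pH 4 stress. They are fold changes in the soluble amount of each domain from pooled custom libraries, measured by high-throughput quantitative proteomics. The fold change is taken to reflect aggregation propensity.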

Sequence | soluble fraction (log2)
HMDAYMIGHNIAKWRKEKGMTQDQLAEHLSVSGQAVSKWENGASLPDIAILPKLAEIFDVTMDQLFSR | 0.166
HMDDAIAEKTGGAVSSVNQRQAILDHIREAYGIELESLRSTDIERYLDDPEIPEPVKDILRDRLRGAK | 0.0292
HMDDDAELLLKKLSAAGGELPFHDRSEPAEIEAAFGLSKSAFKRALGKLLKAGKVVKTQQGIQLK | 0.266
HMDDDIKNALDVLPEQYRMTVYYADVEGLAYKEIGAIMNTPIGTVMSRIHRGRSQLRVLLAAVAADR | -0.0958
HMDDFITLVIHTPAHAQNLRNILESHGMEVRLEDFVSFKSPVAVAQRVKIRPKDLPLALKIIESGE | 0.126
HMDDFVEIDGKKYEIDMSFDNILRLFDLLKDKSLNDVTKIETGLIMLIDDSLDDYDTEEKADIFVQIF | 0.22
HMDDGALQIRLGPQALQQRLDKLGYSLNKEDLDLVYQYFLHSADSKGAVYDQELRELMGEAGVE | -0.607
HMDDIHTFVYETETPFDPQKLDRYIGSLTAVYGQDMLRYKGILYFAGVDRRVVFQGVHMLAV | -0.353
HMDDILAYEIEDKEDLENLSLGKSIGINLNKLIKPTLNSFDNSLLFLSKKGNIISYGKLNGDLFKPKKVL | -0.454
HMDDINVSNSKNIVPNVTGHTGSKAIPVLENLGLDVQYSGFGKVTNQSIPAGTRFKKGETIYLMLE | -0.0218
HMDDIVFPNPTKNQINVSIDGLKNIYNLSGKLLISTNDKIIDVSILKAGVYFINTNEQFYKFVK | -0.797
HMDDIVPHSTKNHIIKTFLSLMNSLDIITDKNKKSLNQNVHIIFNKFNFSKKEANLFIGVLNRIQKALK | 0.134
HMDDLFGNAIEMFNNQRYDMTYELLVQLLSETPNNEKAWQLLADTKFMLGDYDDALHIVGKAAK | -1.36
HMDDPWHNLANAIVAVAADDYRSALRNEDEGLLKSLELFFHSEWYRILTDVDADRLLGMLRRERS | -1.14
HMDDTPLNNVIKKIAALPENITLADKSAVLSAWEAYQALSVNLKAQVSNSELLIKAYETILQLEGEDQIK | -0.397
HMDDYRIEDMMTVVEEQVIRQKETNLSWFFKRAGSLNEIITIFLAALELIKVHRVYVKQEHNFDDIILRKE | -0.872
HMDEAAGVLTQLRAFIAASNLSPGLRLPPERELAEQLGVTRAELRKALAVLEAEGLLWRQVGKGTFYGARP | -0.523
HMDEAEELYQAVQALKPKYREVILLHYYQGLRVGEIAAILRAPQSTVSIRLRRARQMLNRMLG | -0.0788
HMDEALLRATLLDVLVKHHPKIGDKLDVVFALAKAWVSSGSDDDFEVLEKYMERLKPDEALMLASGFSNML | -0.819
HMDEDTWKLYKRAYKKYYARYMKGNMSEAAFKAWGEQAAADRDAAIEQLRATTDAALSASIIQQLKEKLNR | 0.22
HMDEEDVLNELIRRLALTADDRLLLSLSYEDGLSSRKIATLLETSAATVQRRLAGLHHQLEQALRVMGLA | -0.828
HMDEEGDALDREYEDQIRLGDEAFDAEDWTSAQRAYTAALELRPDERYPKNRLRRLASLQEDV | 0.161
HMDEETVALQKAIHSLPPKQQAVFNMRYYDEMSFREIADANETTESSAKANYHFAKAKIIEQMKR | 0.166
HMDEILHHPSYRAIYEYMLDHKHVKTKDIAALLNVKEPRARQLLKEMIDKHFIIALGSNRNREYELL | 0.348
HMDEKSGWLHLAPHEGALRAALYAEHAVQEERTAPDGSQWLRLVLREKHYHQIQSKYNRRLTLHTQPDPS | ≥ 0.43

Sequence | soluble fraction (log2)
HMDENDPYEILEIDRLASDDQVKAKYRALIRENHPDVLMAKGVPQEFIDLANRKMAVINAAYDRIEKEREF | -0.616
HMDEPGAGYKWREDVLLRVMASHGIEESLRDDFVRHAVGFDNDDNMYLKKVEIENAAAAWVAN | -1.36
HMDETELLLQKAIATLPDKQRVVFNLKYFDEMKYEEMSELLETSVGALKASYHLAVKKIEQFFHDA | -0.241
HMDETYRRQLEDLAREHGAEYLHGILREVDPASAEAIHANNIKRVIRALEFYHLSGKKISEHNETERQ | -0.00358
HMDEVHYLADKERGTTWEEILIHADRDIKFLSLSATINNKNEFLEWLVSLRGTTSLIHSSTRPIPLEI | -0.682
HMDEVLDQFVRGQIYGYIRANPGDIYSSIRDNLGLKNGVTTYHLDVLAREEYVYSEIDGTNRRFYPSGWEE | -2.23
HMDEVVVVERGGVQITMSEIDAKIMELPVDVRPSYLDSPERLQNFVSNLLLEKQAAQLKSQY | -1.42
HMDEWDPAILYVGLDYEDAAQIATRLATSGVPYRLSPDGTMITVPDDQVNNMRLTLAGEGFPH | -1.12
HMDEYFNPETVVHYLRELFDTYRENGGNPFEWFHSTFESVNLNPQNYRKDLITTIEKALIEWIEIFEKQ | -0.553
HMDFDPDVPSREDILQAFRDSKPPLTVNALISEFGLSRDASIVGLERRMGAMQRDGQLEQTPSGWQLSV | 0.144
HMDFFVLVGAYKTPDEAETIRAKIAFSGLDSSVSHGNDGRYRVRIGPFHSEGDARKAQSTLRANDIPGQII | 0.18
HMDFGMPEELQKKLDKMPALKAAFEALTPGRQRGYIFYFSQPKQSKTRELRIEKSIEQIMNGKGLND | 0.199
HMDFIEYIISEESKGLRADQAISMENDKFSRSLIQKWIKKGRVLVNGRKIKPKDIVNLNDKITINPEESIN | -0.597
HMDFITPYEIEQGQYEGAELYEDGKFEEAFSLSSIAAQRGMKTAQYLLGIMFLKGEYVDQSLAIGMAW | -1.18
HMDFPYISGIEIAAIKNREFIRIETDKAQEIAIALDKSGIPFSARFSDAEMVLTYDGSYKEQVEDIIAKA | -0.808
HMDFSERLARAMSLAGYTQGRLAKEVGMAQSSVNKLLNGANGSRKTVEIASVLGVRPEWLSTGAGEML | 0.0512
HMDFSSRLKDERKRLKLSQAQLGEAGGVSKDAQLNYENGSRSPSASYLELIAREGVDVQFLLTGKRS | -0.0636
HMDFSYTVGDIDEPIDSRGNSVIMLRKLAWGSNAEKLEIRRWIIDIDSERANKGVTFLTEEGPHNLVRV | -0.332
HMDFTISDADFHRLVQFIQQNYGVALSKKRQLISSRLSHSLRELGYKDFRTFLEHLFSTRDPADLELVLNK | -0.399
HMDFYVILGVDRAASLSDVKRAYRRLARKHHPDINPGDPESDAFFMRVTEAYETLVDPDRRQEYDEHG | -1.34
HMDGEFINLKNRAGTEIEARILNYQNGQVKLERKDGVTFVVSISMFDAKSVIAINHKIAEIIDT | 0.12
HMDGIDALEPLMRRVFEALPQRRSMTIERAAVAAGLDEESVKIALVRLQLEGYVANDERGWHRSKSPH | -0.000736
HMDGIGLRVRMIREGVGLTQKQLAEHLGMQRTALVQVEAGSRKLSASELIGVARFFNITVEQFLDPEK | -1.72
HMDGIPVPDVKGTVEAEATATLKNSGFEVTKTQDFSDTVEAGKVISQNPAGGSSAASGSSVTLVISQGPN | -0.232
HMDGISANAVKALIESLIAGEDKRKPLSDQAMSDRLALQGIVLARRTVAKYREELNFPPAHQRKQK | 0.22

Sequence | soluble fraction (log2)
HMDGLPYPEAAEEPIAQVARNLGMDATRVSIALQEAKLIFRNLDETLAEIAANNGTTPQVVYDAIRHLEPP | -0.372
HMDGLTEQQADDILAFISIKGTNAEVLAALENYAGRNETFDTGLSELKVVASNLAAFGMPEENFVVDL | 0.0229
HMDGPGDRLLIAIQENSMTQKKFAQLIGMSPNGLNSIIKGKKRLSRVLAIATERLTGVRADWILQNEQPK | -0.244
HMDGQPLSERQQEILRWVAEGLSNREIGERLNITPNTVRDHLSEVMRRLEVSNRTSAVSTAFHLGLLP | -0.178
HMDGRIRFRHAALHDPDVAARLHDYLTTSLPGVRSARVNSQTGSLLLEYDPEVLDRSTLLDLAARAESLL | -1.06
HMDGRSLSHATLEEIRIRAVQRVEAGESPEVVVKALGFSRPRIYEWLALYREGGLEALRAKPV | -0.53
HMDGSEYAGTVRLGDGTLQPVPRFETSNSETPKYLYLVMDVTHDPPVYILEHESAELKSVLGGLVLIGSYS | -0.0612
HMDGTVRGKTTFQELLDWGVPQERIEAVLGGPIPAPGVVIKDYVTAQGKEFSAVRDALQAEVDAVLK | -0.229
HMDGVLLDHLDGFVTTRRGVEAWLEQPTSFNKPSILLVAADGESTRRAIPSIAFGYDFASRHDIPAYDAG | -1.29
HMDGVPPAGSRIRLTVSTQVGDKEFEGTLVPPAGVDLLTLKLANGYNLSHSIADVREVVLIEEGLQGEEP | -2.05
HMDGVSLLFKLMETLPEQQKTILHLRDVEQLEFAEIAKITNTSQANVRVALSRARKKIKDLLLKQY | -1.31
HMDGVYLKSLKQTEQHIHWSGYAQSNAWVSTLMRNLDASPWFESPLLIEIKAATINNSRSNEFDLNVRL | 0.102
HMDGYTVYTNWGSDTNVARSDQQIQSQIPQLSGATIVGVWTKPIATGGTSYKIRYRTNSGAFTEIDVDQ | -0.0816
HMDHKTKLQEVLQKSGDVFIEYRLIKEEGPAHERIFWIEVYVDDQLIGTGQGKSKKLAEQAAAENALAALE | -1.15
HMDIEHREMKLQKLVITADSPLVGKTLKESNVRQRYNFMVVGVEEGQKNLTMINPNRRFEVGDIVWVVGEE | -0.204
HMDIFGREAEVEQILQEVRFGDDPHYRLSIGILPVTGHAGAGKTALVRFIFHHEVARAEFTVRMWVHV | -0.998
HMDIGKNIQTIRYANKLTQDQVIAKLNLMGISMSKSTYAKLETNRMNIKVSELVALAKIFHTDINAF | -0.274
HMDIGTYTVTASALNIRQYPTASSAKTGSYPNGSIVTIYEYLTDGSWGRTDDGWISMNYVSRRY | -1.37
HMDIHSEEYILGQNIRKYRLRLGWSQADLSNAVDIDRADISKYENGAKGIMSSTLLRKFAKALGVSMDALM | 0.0187
HMDILPRMVASEMRAVGVPPERMTREEKGTVIRNLMNAGIHQMKGAVVEIARQLHLSEPTVYRYIKREKG | -0.177
HMDINMELGKNIRRLRKLNNLTQQSLANQMNRSKTLIALWEKGERDPSSIDLKRLSEIFNVRADDIIG | -0.00935
HMDIRMLLSDREEEIMILLSKGLSISEAANRMQIGQASAATYLNRARRKLKAETVRQAVAIWTGD | -0.422
HMDISAFDTEFIISKFGGIRPMAQKLGVPVSTVQGWKQRQTIPQNRMGDILEAAKNYNLELTP | 0.114
HMDISPAAKQRLALIQPLLEKNAEAITDRKLRNAVAKDIANNQNTTVRRVLRLYYRYLATGQVM | 0.158
HMDIVIPIQVKNVSSGEVLDFPSIRAAARDLKFPKTTISLGVRYAGEKAYKGFVMRYRSDDPWPIVQES | 0.103
